In article PMC2132723 one finds percent of pericentrin co-depleted with γ-tubulin and stoichiometry N data, which are given here for two substances.

Assay [1] concerns the target γ-tubulin (Xenopus egg extract) (Xenopus laevis (endogenous in egg extracts)) (UniProt P23330). Kind of assay: co-IP.
The target in assay [2] is pericentrin (Xenopus egg extract) (Xenopus laevis (endogenous in egg extracts)). Kind of assay: quantitative Western blot. The note with it: scale: γ-tubulin molecules per pericentrin molecule.

As for “pericentrin (Xenopus egg extract) (natural protein)”, the percent of pericentrin co-depleted with γ-tubulin in assay [1] lay in the range of 85 to 95%. What is called stoichiometry N is the number of molecules, sites or subunits per partner or assembly. “γ-tubulin (Xenopus egg extract) (from UniProt P23330 1-451) (natural protein)” registered a stoichiometry N in assay [2] of 30.
